Measured values as given in IntAct's records for PubMed 23454120.

B1: Rho-related GTP-binding protein RhoD (Mus musculus), P97348 (parent)
chain: MNASQVAGEEAPQSGHSVKVVLVGDGGCGKTSLMMVFAKGAFPESYSPTVFERYNATLQMKGKPVHLQIWDTAGQDDYDRLRPLFYPDANVLLLCFDVTNPNSFDNVSNRWYPEVTHFCKGVPIIVVGCKIDLRKDKVLVNNLRKKRLEPVTYHRGHDMARSVGAVAYLECSARLHDNVEAVFQEAAEVALSSRRHNFWRRITQNCCLAT

Variants of: B1
Conditions: with dapk3_human DAPK3, O43293
Sequence of dapk3_human DAPK3, O43293 (O43293 whole entry, looked up): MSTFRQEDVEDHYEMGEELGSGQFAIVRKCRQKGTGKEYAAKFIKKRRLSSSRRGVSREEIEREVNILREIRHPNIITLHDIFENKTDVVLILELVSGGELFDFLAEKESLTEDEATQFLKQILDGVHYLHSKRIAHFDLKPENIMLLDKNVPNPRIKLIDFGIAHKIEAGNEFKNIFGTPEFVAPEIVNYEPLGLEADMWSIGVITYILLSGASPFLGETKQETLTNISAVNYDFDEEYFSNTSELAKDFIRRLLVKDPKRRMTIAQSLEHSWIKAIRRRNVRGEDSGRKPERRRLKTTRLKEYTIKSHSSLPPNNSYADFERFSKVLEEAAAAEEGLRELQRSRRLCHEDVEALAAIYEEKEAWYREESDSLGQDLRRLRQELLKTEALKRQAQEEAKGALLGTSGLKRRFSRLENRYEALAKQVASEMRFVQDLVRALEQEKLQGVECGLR

Row | effect of a mutation on the interaction | Variant
1 | disrupting interaction | T31N
